Measurements published in paper PMC7897488.

Key:
[1] = biological target: VcaM4I HNH domain H224A variant (residues 179-309) (Vibrio campbellii); test: SEC; Superdex 75 10/300 GL, 15 mM Tris-HCl (pH 8.5), 0.3 M NaCl, 1 mM TCEP; bovine serum albumin, ovalbumin, myoglobin and vitamin B12 as molecular mass standards
[2] = biological target: VcaM4I Helix-HNH fragment (residues 148-309) (Vibrio campbellii); test: as above

| Substance | stoichiometry N [1] | stoichiometry N [2] |
| --- | --- | --- |
| VcaM4I HNH domain H224A variant (residues 179-309) (domain or fragment) | 2 |  |
| VcaM4I Helix-HNH fragment (residues 148-309) (domain or fragment) |  | 2 |
